This passage reports loss of binding as percent of the loss seen with wild-type supernatant (24 h treatment of mucin with anSME mutant supernatant) and loss of binding as percent of the loss seen with wild-type supernatant (72 h treatment of mucin with anSME mutant supernatant) results from paper PMC5712619, “3-Sulfogalactosyl-dependent adhesion of Escherichia coli HS multivalent adhesion molecule is attenuated by sulfatase activity” (The Journal of Biological Chemistry, 2017).

For this assay, the target named is mucin from porcine stomach type II (porcine). Kind of assay: ELISA; as a2, but mucin type II was first treated with supernatant of the sulfatase-deficient B. thetaiotaomicron anSME mutant for 24 h or 72 h.
Chain of mucin from porcine stomach type II (porcine) (main, as listed by the source): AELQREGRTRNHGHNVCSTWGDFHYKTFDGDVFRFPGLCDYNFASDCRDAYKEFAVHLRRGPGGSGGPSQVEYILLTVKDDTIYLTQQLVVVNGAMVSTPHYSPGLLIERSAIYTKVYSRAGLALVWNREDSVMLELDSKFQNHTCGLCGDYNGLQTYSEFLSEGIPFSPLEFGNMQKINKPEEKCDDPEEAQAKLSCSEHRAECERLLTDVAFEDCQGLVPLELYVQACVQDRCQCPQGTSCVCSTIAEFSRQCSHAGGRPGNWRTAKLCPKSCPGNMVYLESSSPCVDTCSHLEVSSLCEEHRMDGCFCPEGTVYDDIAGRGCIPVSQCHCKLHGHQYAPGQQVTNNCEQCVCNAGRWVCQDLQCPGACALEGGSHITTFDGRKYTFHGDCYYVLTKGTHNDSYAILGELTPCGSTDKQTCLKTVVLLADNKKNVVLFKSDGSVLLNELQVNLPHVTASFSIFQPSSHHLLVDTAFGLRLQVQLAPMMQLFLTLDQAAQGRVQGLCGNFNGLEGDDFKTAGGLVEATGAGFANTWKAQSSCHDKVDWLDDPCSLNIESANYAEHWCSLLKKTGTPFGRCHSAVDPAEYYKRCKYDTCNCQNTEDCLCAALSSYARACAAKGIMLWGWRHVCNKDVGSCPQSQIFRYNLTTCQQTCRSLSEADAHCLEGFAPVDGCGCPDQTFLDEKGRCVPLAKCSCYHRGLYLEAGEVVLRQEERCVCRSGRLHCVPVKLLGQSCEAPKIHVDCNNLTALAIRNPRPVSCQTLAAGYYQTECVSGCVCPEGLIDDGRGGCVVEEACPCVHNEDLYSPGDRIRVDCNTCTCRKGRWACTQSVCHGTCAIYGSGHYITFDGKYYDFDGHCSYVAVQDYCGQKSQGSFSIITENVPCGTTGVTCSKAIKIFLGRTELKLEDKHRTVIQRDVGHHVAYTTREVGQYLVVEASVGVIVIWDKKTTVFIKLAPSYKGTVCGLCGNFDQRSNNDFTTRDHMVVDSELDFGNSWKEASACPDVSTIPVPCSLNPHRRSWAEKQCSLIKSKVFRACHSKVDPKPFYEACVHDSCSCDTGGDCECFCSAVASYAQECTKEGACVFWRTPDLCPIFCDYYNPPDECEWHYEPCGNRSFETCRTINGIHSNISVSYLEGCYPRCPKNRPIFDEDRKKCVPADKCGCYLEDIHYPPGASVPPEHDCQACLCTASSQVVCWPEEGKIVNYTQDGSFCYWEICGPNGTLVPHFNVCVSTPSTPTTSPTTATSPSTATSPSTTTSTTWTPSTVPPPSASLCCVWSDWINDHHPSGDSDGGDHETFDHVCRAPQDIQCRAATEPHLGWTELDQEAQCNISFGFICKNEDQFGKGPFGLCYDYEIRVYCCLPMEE

The substance “GST-MAM^HS (multivalent adhesion molecule from the gut commensal Escherichia coli HS, ΔTM construct) (domain or fragment)” returned a loss of binding as percent of the loss seen with wild-type supernatant (24 h treatment of mucin with anSME mutant supernatant) of 25% and a loss of binding as percent of the loss seen with wild-type supernatant (72 h treatment of mucin with anSME mutant supernatant) of 50%.
